# Results as given in publication PMC11258689, “A Snake Venom Peptide and Its Derivatives Prevent Aβ42 Aggregation and Eliminate Toxic Aβ42 Aggregates In Vitro” (ACS Chemical Neuroscience, 2024).
# Non-standard residues stand in square brackets, D forms with d. No end group written: not given here.
# B1: CDP-1D, D-enantiomeric form of CDP-1 (peptide)
# peptide: Ac-[dK][dK][dC][dC][dK][dW][dR][dW][dR][dC][dD][dM][dK]
# modifications: not fully specified (C-terminus); cysteine pairing not given here; also: methylated at the C-terminus
# Target: amyloid-β (1–42) (UniProt P05067)
binder,measurement,value
B1,"ThT fluorescence of Aβ42 aggregation (10 μM Aβ42, 28 μM peptide, 24 h); inhibition of the self-aggregation of Aβ42",100%
